Measurements from article PMC12102759.

B1: MBOAT1 peptide 17-32 (Lysophospholipid acyltransferase 1), 16-mer library wild type / NSP3 ADRP (ORF1ab Nsp3b ADRP, residues 1023-1192) (parent)
chain 1: STYLHPLSELLGIPLD
chain 2: not shown
B2: TET3 peptide 460-475 (Methylcytosine dioxygenase TET3), 16-mer library wild type / NSP3 SUD-M (ORF1ab Nsp3c SUD-M, residues 1356-1493) (parent)
chain 1: MAELEQLLGSASDYIQ
chain 2: LPSIISNEKQEILGTVSWNLREMLAHAEETRKLMPVCVETKAIVSTIQRKYKGIKIQEGVVDYGARFYFYTSKTTVASLINTLNDLNETLVTMPLGYVTHGLNLEEAARYMRSLKVPATVSVSSPDAVTAYNGYLTSS
B3: NEK9 peptide 738-753 (Serine/threonine-protein kinase Nek9), 16-mer library wild type / NSP9 (ORF1ab Nsp9, residues 4141-4253) (parent)
chain 1: SGLSIGTVFQSSSPGG
chain 2: NNELSPVALRQMSCAAGTTQTACTDDNALAYYNTTKGGRFVLALLSDLQDLKWARFPKSDGTGTIYTELEPPCRFVTDTPKGPKVKYLYFIKGLNNLNRGMVLGSLAATVRLQ
B4: ICA1L peptide 451-466 (Islet cell autoantigen 1-like protein), 16-mer library wild type / NSP16 (ORF1ab Nsp16, residues 6799-7088) (parent)
chain 1: QDMSAWFNLFADLDPL
chain 2: SSQAWQPGVAMPNLYKMQRMLLEKCDLQNYGDSATLPKGIMMNVAKYTQLCQYLNTLTLAVPYNMRVIHFGAGSDKGVAPGTAVLRQWLPTGTLLVDSDLNDFVSDADSTLIGDCATVHTANKWDLIISDMYDPKTKNVTKENDSKEGFFTYICGFIQQKLALGGSVAIKITEHSWNADLYKLMGHFAWWTAFVTNVNASSSEAFLIGCNYLGKPREQIDGYVMHANYIFWRNTNPIQLSSYSLFDMSKFPLKLRGTAVMSLKEGQINDMILSLLSKGRLIIRENNRVVI

Variants of: B1
Settings: with NSP3 ADRP (ORF1ab Nsp3b ADRP, residues 1023-1192); bait immobilised on MaxiSorp plates (10 µg), library pre-cleared on GST, 2 h binding at 4 °C, five washes; one round per day, days 1-4; value from days 2 and 3; keep out of graded; scale: average fractional NGS count over selection days 2 and 3

Variant	screen value
chain 1 E9L	0
chain 1 E9H	0
chain 1 E9I	0
chain 1 E9G	0
chain 1 E9R	0
chain 1 S1Y	0.00667
chain 1 S1Q	0.000187
chain 1 S1D	0.000236
chain 1 S1P	0.000375
chain 1 S1E	0.00035
chain 1 S1M	9.76e-05
chain 1 S1R	0
chain 1 S1I	0.000426
chain 1 S1A	0.000215
chain 1 S1W	0.000263
chain 1 S1N	0.000536
chain 1 S1V	0.000869
chain 1 S1L	0.000154
chain 1 S1T	9.2e-05
chain 1 S1H	0.000511
chain 1 S1G	0.00039
chain 1 S1F	0.000157

Variants of: B2
Settings: with NSP3 SUD-M (ORF1ab Nsp3c SUD-M, residues 1356-1493); bait immobilised on MaxiSorp plates (10 µg), library pre-cleared on GST, 2 h binding at 4 °C, five washes; one round per day, days 1-4; value from days 2 and 3; keep out of graded; scale: average fractional NGS count over selection days 2 and 3

Variant	screen value
chain 1 MAELEQLLGSASSYIQ [chain 1 D13S]	0
chain 1 MAELEQLLGSASGYIQ [chain 1 D13G]	0
chain 1 MAELEQLLGSASNYIQ [chain 1 D13N]	0
chain 1 MAELEQLLGSASIYIQ [chain 1 D13I]	0
chain 1 MAELEQLLGSASFYIQ [chain 1 D13F]	0
chain 1 MAELEQLLGGASDYIQ [chain 1 S10G]	0
chain 1 MAELEQLLGSASDYRQ [chain 1 I15R]	0
chain 1 MAELEQLLGSASDYMQ [chain 1 I15M]	0
chain 1 MAELEQLLGSASDYGQ [chain 1 I15G]	0
chain 1 MAMLEQLLGSASDYIQ [chain 1 E3M]	0
chain 1 MANLEQLLGSASDYIQ [chain 1 E3N]	0
chain 1 MATLEQLLGSASDYIQ [chain 1 E3T]	0.000884
chain 1 MAQLEQLLGSASDYIQ [chain 1 E3Q]	0
chain 1 MAWLEQLLGSASDYIQ [chain 1 E3W]	6.52e-05
chain 1 MAELESLLGSASDYIQ [chain 1 Q6S]	0
chain 1 MAELEKLLGSASDYIQ [chain 1 Q6K]	0
chain 1 MAELEPLLGSASDYIQ [chain 1 Q6P]	0
chain 1 MAELEYLLGSASDYIQ [chain 1 Q6Y]	0
chain 1 MAELEGLLGSASDYIQ [chain 1 Q6G]	0
chain 1 TAELEQLLGSASDYIQ [chain 1 M1T]	0
chain 1 RAELEQLLGSASDYIQ [chain 1 M1R]	0
chain 1 KAELEQLLGSASDYIQ [chain 1 M1K]	0
chain 1 GAELEQLLGSASDYIQ [chain 1 M1G]	0
chain 1 HAELEQLLGSASDYIQ [chain 1 M1H]	0

Variant	screen value
chain 1 MAELEQLLGSASDFIQ [chain 1 Y14F]	0
chain 1 MAELEQLLGSASDTIQ [chain 1 Y14T]	0
chain 1 MAELEQLLGSNSDYIQ [chain 1 A11N]	0
chain 1 MAELEQLLGSWSDYIQ [chain 1 A11W]	0
chain 1 MAELEQLLGSAPDYIQ [chain 1 S12P]	0
chain 1 MAELKQLLGSASDYIQ [chain 1 E5K]	0
chain 1 MAELWQLLGSASDYIQ [chain 1 E5W]	0
chain 1 MAELDQLLGSASDYIQ [chain 1 E5D]	0.000325
chain 1 MAEYEQLLGSASDYIQ [chain 1 L4Y]	0
chain 1 MAEMEQLLGSASDYIQ [chain 1 L4M]	0
chain 1 MAEREQLLGSASDYIQ [chain 1 L4R]	0
chain 1 MAEGEQLLGSASDYIQ [chain 1 L4G]	0
chain 1 MAELEQLSGSASDYIQ [chain 1 L8S]	0
chain 1 MAELEQLIGSASDYIQ [chain 1 L8I]	0
chain 1 MAELEQLWGSASDYIQ [chain 1 L8W]	0
chain 1 MAELEQLEGSASDYIQ [chain 1 L8E]	0
chain 1 MRELEQLLGSASDYIQ [chain 1 A2R]	0
chain 1 MWELEQLLGSASDYIQ [chain 1 A2W]	0
chain 1 MHELEQLLGSASDYIQ [chain 1 A2H]	3.41e-05
chain 1 MTELEQLLGSASDYIQ [chain 1 A2T]	0
chain 1 MAELEQPLGSASDYIQ [chain 1 L7P]	0
chain 1 MAELEQNLGSASDYIQ [chain 1 L7N]	0
chain 1 MAELEQTLGSASDYIQ [chain 1 L7T]	0
chain 1 MAELEQQLGSASDYIQ [chain 1 L7Q]	0

Variants of: B3
Settings: with NSP9 (ORF1ab Nsp9, residues 4141-4253); bait immobilised on MaxiSorp plates (10 µg), library pre-cleared on GST, 2 h binding at 4 °C, five washes; one round per day, days 1-4; value from days 2 and 3; keep out of graded; scale: average fractional NGS count over selection days 2 and 3

Variant	screen value
chain 1 SGLSIGTVVQSSSPGG [chain 1 F9V]	0.000209
chain 1 SGLSIGTVKQSSSPGG [chain 1 F9K]	0
chain 1 SGLSIGTVTQSSSPGG [chain 1 F9T]	0
chain 1 SGLSIGTVNQSSSPGG [chain 1 F9N]	9.97e-05
chain 1 SGLSIGTVEQSSSPGG [chain 1 F9E]	0.000224

Variants of: B4
Settings: with NSP16 (ORF1ab Nsp16, residues 6799-7088); bait immobilised on MaxiSorp plates (10 µg), library pre-cleared on GST, 2 h binding at 4 °C, five washes; one round per day, days 1-4; value from days 2 and 3; keep out of graded; scale: average fractional NGS count over selection days 2 and 3

Variant	screen value
chain 1 QDMSAWFNLFADLDPA [chain 1 L16A]	6.04e-05
chain 1 QDMSAWFNLFADLDPS [chain 1 L16S]	5.17e-05
chain 1 QDMSAWFNLFADLDPF [chain 1 L16F]	2.69e-05
chain 1 QDMSAWFNLFADLDPD [chain 1 L16D]	3.18e-05
chain 1 QDMSAWFNLFADLDPN [chain 1 L16N]	2.43e-05
chain 1 QDMSAWFNLFAPLDPL [chain 1 D12P]	3.33e-05
chain 1 QDMSAWFNLFAGLDPL [chain 1 D12G]	3.31e-05
chain 1 QDMSAWFNLFANLDPL [chain 1 D12N]	1.88e-05
chain 1 QDMSAWFNLFAQLDPL [chain 1 D12Q]	5.82e-05
chain 1 QDMSAWFNLFADLDAL [chain 1 P15A]	1.57e-05
chain 1 QDMSAWFNLFADLDLL [chain 1 P15L]	3.43e-05
chain 1 QDMSAWFNLFADLDEL [chain 1 P15E]	0
chain 1 QDMSAWFNLFADLDYL [chain 1 P15Y]	5.19e-05
chain 1 QDMSAWFNLFADLDWL [chain 1 P15W]	2.45e-05
chain 1 QDMSAWFNLFADLDFL [chain 1 P15F]	0
chain 1 QEMSAWFNLFADLDPL [chain 1 D2E]	0
chain 1 QDMSAWFNLFADLRPL [chain 1 D14R]	8.06e-05
chain 1 QDMSAWFNLFADLNPL [chain 1 D14N]	6.07e-05
chain 1 QDMSAWFNLFADLSPL [chain 1 D14S]	6.51e-05
chain 1 QDMSAWFNLFADLFPL [chain 1 D14F]	1.57e-05
chain 1 QDMSAWFNLFADLGPL [chain 1 D14G]	1.57e-05
chain 1 QDMSAWFNLFADLLPL [chain 1 D14L]	6.11e-05
chain 1 QDMSAWFNLFADLHPL [chain 1 D14H]	0
chain 1 QDMSAWFNLFADLAPL [chain 1 D14A]	3.47e-05
chain 1 QDMSLWFNLFADLDPL [chain 1 A5L]	1.55e-05
chain 1 QDMSGWFNLFADLDPL [chain 1 A5G]	6.16e-05

Variant	screen value
chain 1 QDMSSWFNLFADLDPL [chain 1 A5S]	3.33e-05
chain 1 QDMSHWFNLFADLDPL [chain 1 A5H]	2.76e-05
chain 1 QDMSAWFQLFADLDPL [chain 1 N8Q]	5.42e-05
chain 1 QDMSAWFDLFADLDPL [chain 1 N8D]	6.98e-05
chain 1 QDMSAWFSLFADLDPL [chain 1 N8S]	2.43e-05
chain 1 QDMSAVFNLFADLDPL [chain 1 W6V]	0
chain 1 QDMSAPFNLFADLDPL [chain 1 W6P]	0
chain 1 QDMAAWFNLFADLDPL [chain 1 S4A]	0
chain 1 QDMDAWFNLFADLDPL [chain 1 S4D]	6.54e-05
chain 1 QDMVAWFNLFADLDPL [chain 1 S4V]	0
chain 1 QDMMAWFNLFADLDPL [chain 1 S4M]	6.83e-05
chain 1 QDMSAWFNLFSDLDPL [chain 1 A11S]	2.43e-05
chain 1 QDMSAWFNLFFDLDPL [chain 1 A11F]	1.35e-05
chain 1 QDMSAWFNLFWDLDPL [chain 1 A11W]	0
chain 1 QDMSAWFNLFDDLDPL [chain 1 A11D]	0
chain 1 QDASAWFNLFADLDPL [chain 1 M3A]	1.55e-05
chain 1 QDMSAWRNLFADLDPL [chain 1 F7R]	0
chain 1 QDMSAWVNLFADLDPL [chain 1 F7V]	5.76e-05
chain 1 QDMSAWSNLFADLDPL [chain 1 F7S]	3.52e-05
chain 1 QDMSAWMNLFADLDPL [chain 1 F7M]	7.76e-05
chain 1 QDMSAWFNLHADLDPL [chain 1 F10H]	0
chain 1 QDMSAWFNLRADLDPL [chain 1 F10R]	0
chain 1 QDMSAWFNTFADLDPL [chain 1 L9T]	3.99e-05
chain 1 QDMSAWFNAFADLDPL [chain 1 L9A]	0
chain 1 QDMSAWFNWFADLDPL [chain 1 L9W]	7.05e-05
chain 1 QDMSAWFNIFADLDPL [chain 1 L9I]	3.31e-05
